The target of experiment [1] is HLA A2.1 molecule (human). Briefly: T2 cells, flow cytometry (BB7.2); complex dissociation. (A flow cytometer gives signals particle by particle.)
Experiment [2] addresses HLA A2.1 molecule (human). Put plainly: T2 cells, flow cytometry (BB7.2); reference HIVpol 589.
The target in experiment [3] is HLA A2.1 molecule (human). Briefly: T2 cells, flow cytometry; P1Y variant against its natural peptide.
The mark [4] stands for this setting: remark: other sources report otherwise.

The record followed here is US20040072240A1.

Read-outs that look alike come from different tables or passages of the source.

Consider ELVSEFSRM (modifications not checked) [HER-2/neu 971], for which the DC50 in experiment [1] stood at 2 h. For the same molecule, the RA (relative affinity) in experiment [2] is over 70.
The matching figures for YLFFYRKSV (modifications not checked) [mhp 572Y1]: 5 h and 2.2.
Consider YLLAVLYCL (modifications not checked) [P1Y variant of Tyrosinase 1], for which, in experiment [3], the DC50 Y1-DC50 WT was over 2 h and the RA WT/RA Y1 is over 3.7.
Regarding DLQVNSLQTV (modifications not checked) [mhp 988], the DC50 in experiment [1] was under 2 h. In addition, the RA (relative affinity) in experiment [2] is 28.6.
VMAGVGSPYV (modifications not checked) [HER-2/neu 773] displayed a DC50 in experiment [1] of 6 h. The molecule also gave an RA (relative affinity) in experiment [2] of 1.7.
On to YLEEITGYL (modifications not checked) [HER-2/neu 402Y1], for which the DC50 in experiment [1] was determined as 4 h. This molecule displayed an RA (relative affinity) in experiment [2] of 3.7. In experiment [3], the DC50 Y1-DC50 WT is over 2 h and the RA WT/RA Y1 was determined as 5.2.
For YLQVNSLQTV (modifications not checked) [mhp 988Y1], the DC50 in experiment [1] is over 6 h. In addition, the RA (relative affinity) in experiment [2] is 2.1.
The molecule YLIHHNTHL (modifications not checked) [HER-2/neu 466Y1] registered a DC50 in experiment [1] of 6 h. Moreover, the RA (relative affinity) in experiment [2] came out at 1.4. In addition, in experiment [3], the DC50 Y1-DC50 WT is over 4 h and the RA WT/RA Y1 amounted to 3.3.
On to ILLVVVLGV (modifications not checked) [HER-2/neu 661], for which the RA (relative affinity) in experiment [2] was over 60.
As for YLTVILGVL (modifications not checked) [P1Y variant of Mart-1 32], in experiment [3], the DC50 Y1-DC50 WT worked out at 2 h and the RA WT/RA Y1 was 16.2.
For the molecule HLYQGCQVV (modifications not checked) [HER-2/neu 48], the DC50 in experiment [1] is over 8 h. In experiment [2], the RA (relative affinity) stood at 1.7.
Take PLQPEQLQV (modifications not checked) [HER-2/neu 391]: the DC50 in experiment [1] was 2 h. This molecule showed an RA (relative affinity) in experiment [2] of over 70.
The matching figures for LLGCAANWIL (modifications not checked) [HBVpol 765]: 4 h and 2.
YMLGTHTMEV (modifications not checked) [gp100 177Y1]: in experiment [3], the DC50 Y1-DC50 WT is 2 h and the RA WT/RA Y1 amounted to 0.6.
Taken in the same sequence, the figures for YLMPYGCLL (modifications not checked) [P1Y variant of HER-2/neu 799] were over 2 h and 3.9.
The molecule KLTGDENFTI (modifications not checked) [Tyrosinase 224] displayed a DC50 in experiment [1] of under 2 h. The RA (relative affinity) in experiment [2] is over 50.
In the case of YLVKSPNHV (modifications not checked) [P1Y variant of HER-2/neu 851], in experiment [3], the DC50 Y1-DC50 WT stood at 2 h and the RA WT/RA Y1 was found to be 3.
Consider ILAKFLHWL (modifications not checked) [mhp 540], for which the DC50 in experiment [1] is over 6 h. Also, the RA (relative affinity) in experiment [2] was 0.3.
In experiment [3], YLCRWGLLL (modifications not checked) [HER-2/neu 5Y1] returned a DC50 Y1-DC50 WT of 0 h and an RA WT/RA Y1 of 1.1.
For the molecule TLEEITGYL (modifications not checked) [HER-2/neu 402], the DC50 in experiment [1] is under 2 h. The RA (relative affinity) in experiment [2] was determined as 19.
The matching figures for YLVPQQGFFC (modifications not checked) [HER-2/neu 1023]: 4 h and 19.6.
On to ALCRWGLLL (modifications not checked) [HER-2/neu 5], for which the DC50 in experiment [1] was over 8 h.
Turning to VLYRYGSFSV (modifications not checked) [gp100 476], the DC50 in experiment [1] was 6 h. The RA (relative affinity) in experiment [2] worked out at 10.
In experiment [3], YIFGSLAFL (modifications not checked) [HER-2/neu 369Y1] came in with a DC50 Y1-DC50 WT of over 2 h and an RA WT/RA Y1 of 3.9.
Take QLLRSFFHFL (modifications not checked) [mp 545]: in experiment [1], the DC50 was over 6 h. In experiment [2], the RA (relative affinity) stood at 1.8.
On to YLVSEFSRM (modifications not checked) [P1Y variant of HER-2/neu 971], for which, in experiment [3], the DC50 Y1-DC50 WT was found to be 2 h and the RA WT/RA Y1 came out at 11.6.
PLEEELPRL (modifications not checked) [HBVpol 594] came in with a DC50 in experiment [1] (setting [4]) of under 2 h. This molecule also came in with an RA (relative affinity) in experiment [2] (setting [4]) of 4.2.
In experiment [2], SLADTNSLAV (modifications not checked) [gp100 570] returned an RA (relative affinity) of 1.
With FLPWHRLFLL (modifications not checked) [Tyrosinase 207], the DC50 in experiment [1] worked out at 2 h. The same molecule gave an RA (relative affinity) in experiment [2] of over 50.
In turn, MLGTHTMEV (modifications not checked) [gp100 178] came in with an RA (relative affinity) in experiment [2] of 0.3.
As for YLADTNSLAV (modifications not checked) [gp100 570Y1], in experiment [3], the DC50 Y1-DC50 WT is over 2 h and the RA WT/RA Y1 was determined as 3.4.
In the case of ALIHHNTHL (modifications not checked) [HER-2/neu 466], in experiment [1], the DC50 is 2 h.
In experiment [3], YLYQGCQVV (modifications not checked) [P1Y variant of HER-2/neu 48] registered a DC50 Y1-DC50 WT of 0 h and an RA WT/RA Y1 of 3.
Consider RLFFYRKSV (modifications not checked) [mhp 572], for which the DC50 in experiment [1] was under 2 h. The RA (relative affinity) in experiment [2] came out at 25.3.
Taken in the same sequence, the figures for ILATFLAWL (modifications not checked) [mp 530] were over 6 h and 0.8.
On to AMLGTHTMEV (modifications not checked) [gp100 177], for which the DC50 in experiment [1] was over 6 h. In experiment [2], this molecule had an RA (relative affinity) of 0.5.
Take MLLAVLYCL (modifications not checked) [Tyrosinase 1]: the RA (relative affinity) in experiment [2] is over 60.
With YMAGVGSPYV (modifications not checked) [P1Y variant of HER-2/neu 773], in experiment [3], the DC50 Y1-DC50 WT amounted to 2 h and the RA WT/RA Y1 was 2.
In the case of VLVKSPNHV (modifications not checked) [HER-2/neu 851], the DC50 in experiment [1] was 4 h. The RA (relative affinity) in experiment [2] is 24.
In the case of YLPWHRLFLL (modifications not checked) [P1Y variant of Tyrosinase 207], in experiment [3], the DC50 Y1-DC50 WT was over 4 h and the RA WT/RA Y1 is over 6.4.
ILTVILGVL (modifications not checked) [mart-1 32] had a DC50 in experiment [1] of 4 h. Further, in experiment [2], the RA (relative affinity) turned out to be 21.1.
Consider YLGTHTMEV (modifications not checked) [P1Y variant of gp100 178], for which, in experiment [3], the DC50 Y1-DC50 WT turned out to be 2 h and the RA WT/RA Y1 is 0.8.
With QLMPYGCLL (modifications not checked) [HER-2/neu 799], the RA (relative affinity) in experiment [2] stood at 1.
In experiment [3], YLYRYGSFSV (modifications not checked) [gp100 476Y1] registered a DC50 Y1-DC50 WT of 2 h and an RA WT/RA Y1 of 4.2.
The molecule LLDGTATLRL (modifications not checked) [gp100 457] displayed an RA (relative affinity) in experiment [2] of 1.6.
In experiment [3], YLLVVVLGV (modifications not checked) [HER-2/neu 661Y1] had a DC50 Y1-DC50 WT of 2 h and an RA WT/RA Y1 of over 1.5.
Regarding PLTSIISAV (modifications not checked) [HER-2/neu 650], the DC50 in experiment [1] is under 2 h. Also, the RA (relative affinity) in experiment [2] is 1.4.
Taken in the same sequence, the figures for FLFWLMDTYV (modifications not checked) [mp 534] were over 6 h and 0.2.
YLQPEQLQV (modifications not checked) [HER-2/neu 391Y1] returned a DC50 in experiment [1] of 8 h. Besides, the RA (relative affinity) in experiment [2] came out at 1.3. In experiment [3], this molecule registered a DC50 Y1-DC50 WT of over 6 h and an RA WT/RA Y1 of 55.5.
Take YLTGDENFTI (modifications not checked) [P1Y variant of Tyrosinase 224]: in experiment [3], the DC50 Y1-DC50 WT was over 2 h and the RA WT/RA Y1 is over 5.1.
Turning to YLDGTATLRL (modifications not checked) [gp100 457Y1], in experiment [3], the DC50 Y1-DC50 WT is over 2 h and the RA WT/RA Y1 came to 2.3.
The molecule FLSTLVHGV (modifications not checked) [mp 876] displayed a DC50 in experiment [1] of over 6 h. In experiment [2], this molecule returned an RA (relative affinity) of 1.2.
Taken in the same sequence, the figures for SLFDFFHFL (modifications not checked) [mp 797] were over 6 h and 1.5.
